Results published in patent US20250277029A1 (Amgen, published 2025).

Legend:
[1] = target: human CB1 on stably transfected CB1 CHO cells (human, UniProt P21554 1-472); experiment: cell-based or functional assay
[2] = target: T1, GFP-fused huCB1-SMALP (human CB1 in styrene maleic acid lipoparticles) (human, UniProt P21554 1-472); experiment: flow cytometry, yeast-displayed IgG, GFP MFI
T1 construct: Prepared as in Luna V. et al. 2018; also called huCB1-GFP-SMALP; wtCB1-SMALP; not shown: GFP fusion
T1 sequence (P21554 whole entry, the tested form may be a part): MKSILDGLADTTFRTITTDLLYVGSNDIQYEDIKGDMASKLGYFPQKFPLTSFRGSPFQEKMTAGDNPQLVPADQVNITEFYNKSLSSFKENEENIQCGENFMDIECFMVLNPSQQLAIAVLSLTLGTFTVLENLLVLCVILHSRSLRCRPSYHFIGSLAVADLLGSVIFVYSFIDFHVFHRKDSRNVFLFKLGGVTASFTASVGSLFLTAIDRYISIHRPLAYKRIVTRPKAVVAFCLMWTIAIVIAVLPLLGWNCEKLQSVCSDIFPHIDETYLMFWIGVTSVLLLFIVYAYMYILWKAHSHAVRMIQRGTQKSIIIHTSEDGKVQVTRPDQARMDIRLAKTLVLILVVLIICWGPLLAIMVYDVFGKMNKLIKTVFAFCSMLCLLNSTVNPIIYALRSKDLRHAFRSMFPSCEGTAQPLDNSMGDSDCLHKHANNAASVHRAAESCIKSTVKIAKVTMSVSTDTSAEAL

[3] = target: T2, His-tagged huCB1-ND (human CB1 in nanodisc) (human); experiment: flow cytometry, yeast-displayed IgG, binding/display ratio
T2 construct: CB1 construct of Cell 167(3) (2016) 750-762 expressed in Sf9 cells; POPC:MSP1D1:CB1 480:8:1; also called CB1-nanodisc; huCB1-Nanodisc; not shown: histidine purification tag
T2 sequence (P21554 99-414): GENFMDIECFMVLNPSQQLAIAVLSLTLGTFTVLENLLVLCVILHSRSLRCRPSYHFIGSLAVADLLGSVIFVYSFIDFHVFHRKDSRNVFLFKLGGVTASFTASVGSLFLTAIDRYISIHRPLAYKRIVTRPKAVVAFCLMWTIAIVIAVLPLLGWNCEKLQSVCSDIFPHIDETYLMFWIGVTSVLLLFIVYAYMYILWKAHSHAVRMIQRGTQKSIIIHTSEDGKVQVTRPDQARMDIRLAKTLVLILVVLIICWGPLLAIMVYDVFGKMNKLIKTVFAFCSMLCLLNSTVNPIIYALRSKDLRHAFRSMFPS

[4] = target: T2, His-tagged huCB1-ND (human CB1 in …); experiment: flow cytometry, yeast-displayed IgG, huCB1-ND over empty-ND
[5] = target: T1, GFP-fused huCB1-SMALP (human CB1 in …); experiment: flow cytometry, yeast-displayed IgG, GFP MFI; remark: listed apart in the source

Chain of human CB1 on stably transfected CB1 CHO cells (P21554 whole entry, the tested form may be a part): as the sequence (P21554 whole entry, the tested form may be a part) above

| Binder | IC50 (nM, n = 4), antagonist activity, TR-FRET cAMP assay [1] [nM] | 100 nM huCB1-SMALP binding (normalized to 10D10) [2] [fold] | relative binding to 0.2 nM huCB1-ND (relative to 10D10N35Y) [3] [fold] | specific huCB1 binding (CB1 ND/Empty ND ratio) [4] [ratio] | also measured |
| --- | --- | --- | --- | --- | --- |
| 10D10 (antibody, V domains shown) VH: QVQLQESGPGLVKPSQTLSLTCTVSGGSIRRGGDYWSWIRQHPGKGLEWIGYIYYSGSTNYNPSLKSRATISVDTSKNQFSLKLSSVTAADTAVYYCARDYDILTGYSYYYYGMDVWGQGTTVTVSS VL: not shown | 347 | – | – | – | – |
| LIBC674200-1 (IgG1 SEFL2 mAb) (antibody, V domains shown) VH: QVQLQESGPGLVKPSQTLSLTCTVSGGSIRRGGDYWSWIRQHPGKGLEWIGHVYYTGQTAYNPNFRNRVRISVNTYKNQFSLKLSSVTAADTAVYYCARGYDVSGYSYYYYGMDVWGQGTTVTVSS VL: DIVMTQSPLSLPVTPGEPASISCRSSQSLLHRSGYNYLDWYLQKPGQSPQLLIYLGSNRASGVPGRFSGSGSGTDFTLKISRVEAEDVGVYYCMQSLQTPRTFGQGTKVEIKR | 2.39 | – | – | – | – |
| LIBC674229-1 (IgG1 SEFL2 mAb) (antibody, V domains shown) VH: QVQLQESGPGLVKPSQTLSLTCTVSGGSIRRGGDYWSWIRQHPGKGLEWIGHIYQTGQTKYNPSFKGRVRISVNTYKNQFSLKLSSVTAADTAVYYCARGYDVSGYSYYYYGMDVWGQGTTVTVSS VL: DIVMTQSPLSLPVTPGEPASISCRSSQSLLHRSGYNYLDWYLQKPGQSPQLLIYQGSNRASGVPDRFSGSGSGTDFTLKISRVEAEDVGVYYCMQSLQTPRTFGQGTKVEIKR | 4.16 | – | – | – | – |
| LIBC523596-1 (antibody, V domains shown) VH: QVQLQESGPGLVKPSQTLSLTCTVSGGSIRRGGDYWSWIRQHPGKGLEWIGHVYQSGQTAYNPNFEDRATISVNTYKNQFSLKLSSVTAADTAVYYCAREYDVVSGYSYYYYGMDVWGQGTTVTVSS VL: DIVMTQSPLSLPVTPGEPASISCRSSQSLLTSSGYNYVDWYLQKPGQSPQLLIYQGSNRASGVPDRFSGSGSGTDFTLKISRVEAEDVGVYYCMQAVKIPRTFGQGTKVEIKR | – | 4.19 | – | – | – |
| LIBC674200-1 (LC: G76D) (IgG1 SEFL2 mAb) (antibody, V domains shown) VH: QVQLQESGPGLVKPSQTLSLTCTVSGGSIRRGGDYWSWIRQHPGKGLEWIGHVYYTGQTAYNPNFRNRVRISVNTYKNQFSLKLSSVTAADTAVYYCARGYDVSGYSYYYYGMDVWGQGTTVTVSS VL: not shown | 2.23 | – | – | – | – |
| LIBC681593-1 (IgG1 SEFL2 mAb) (antibody, V domains shown) VH: QVQLQESGPGLVKPSQTLSLTCTVSGGSIRRGGDYWAWIRQHPGKGLEWIGHIYQTGSTNYNPRFKGRATISVNTYKNQFSLKLSSVTAADTAVYYCARNYDTLTGYSYYYYGMDVWGQGTTVTVSS VL: DIQMTQSPSSLSASVGDRVTITCRASQSISSYLNWYQQKPGKAPKLLIYNARRLGSGVPSRFSGSGSGTDFTLTISSLQPEDFATYYCQQYRSSPVTFGGGTKVEIKR | 0.61 | – | – | – | – |
| LIBC523844-1 (antibody, V domains shown) VH: QVQLQESGPGLVKPSQTLSLTCTVSGGSIRRGGDYWSWIRQHPGKGLEWIGHVYYTGSTKYNPSFKDRATISVNTYKNQFSLKLSSVTAADTAVYYCARDYDILTGYSYYYYGMDVWGQGTTVTVSS VL: DIVMTQSPLSLPVTPGEPASISCRSSQSLLSSSGANYVDWYLQKPGQSPQLLIYQGSNRASGVPDRFSGSGSGTDFTLKISRVEAEDVGVYYCRQARALPRTFGQGTKVEIKR | – | 6.69 | 3.78 | 8.58 | – |
| LIBC681737-1(LC:P12S) (IgG1 SEFL2 mAb) (antibody, V domains shown) VH: QVQLQESGPGLVKPSQTLSLTCTVSGGSIRRGGDYWAWIRQHPGKGLEWIGHVYYTGSTNYNPRFKDRATISVNTYKNQFSLKLSSVTAADTAVYYCARNYDTVTGYSYYYYGMDVWGQGTTVTVSS VL: DIQMTQSPSSLSASVGDRVTITCRASQSISSYLNWYQQKPGKAPKLLIYSARRLASGVPSRFSGSGSGTDFTLTISSLQPEDFATYYCQQYYHPPITFGGGTKVEIKR | 0.55 | – | – | – | – |
| LIBC681594-1 (IgG1 SEFL2 mAb) (antibody, V domains shown) VH: QVQLQESGPGLVKPSQTLSLTCTVSGGSIRRGGDYWAWIRQHPGKGLEWIGHIYQTGSTNYNPRFKGRATISVNTYKNQFSLKLSSVTAADTAVYYCARNYDTLTGYSYYYYGMDVWGQGTTVTVSS VL: DIQMTQSPSSLSASVGDRVTITCRASQSISSYLNWYQQKPGKAPKLLIYKARKLSSGVPSRFSGSGSGTDFTLTISSLQPEDFATYYCQQFGSMPLTFGGGTKVEIKR | 1.24 | – | – | – | – |
| LIBC528116-1 + VK1 germline fix(es) (IgG1 SEFL2 mAb) (antibody, V domains shown) VH: QVQLQESGPGLVKPSQTLSLTCTVSGGSIRRGGDYWAWIRQHPGKGLEWIGHVYYTGSTNYNPRFKDRATISVNTYKNQFSLKLSSVTAADTAVYYCARNYDTVTGYSYYYYGMDVWGQGTTVTVSS VL: DIQLTQSPSTLSASVGDRVTITCRASQSISNYLNWYQQKPGKAPKLLIYAASSLHSGVPSRFSGSGSGTDFTLTISSLQPEDFASYYCQQYQSYPLTFGQGTKVEIKR | 2.02 | – | – | – | – |
| LIBC523748-1 (antibody, V domains shown) VH: QVQLQESGPGLVKPSQTLSLTCTVSGGSIRRGGDYWSWIRQHPGKGLEWIGHVYYTGSTKYNPSFEGRATISVKTYKNQFSLKLSSVTAADTAVYYCARDYDILTGYSYYYYGMDVWGQGTTVTVSS VL: not shown | – | 6.12 | 4.41 | 5.33 | – |
| LIBC523815-1 (antibody, V domains shown) VH: QVQLQESGPGLVKPSQTLSLTCTVSGGSIRRGGDYWSWIRQHPGKGLEWIGHIYQSGQTKYNPSLKDRATISVNTYKNQFSLKLSSVTAADTAVYYCARDYDILTGYSYYYYGMDVWGQGTTVTVSS VL: DIVMTQSPLSLPVTPGEPASISCRSSQSLLTSSGANYVDWYLQKPGQSPQLLIYLGSNRASGVPDRFSGSGSGTDFTLKISRVEAEDVGVYYCRQAREQPRTFGQGTKVEIKR | – | 4.55 | 6.15 | 14.8 | – |
| LIBC528148-1 (antibody, V domains shown) VH: QVQLQESGPGLVKPSQTLSLTCTVSGGSIRRGGDYWSWIRQHPGKGLEWIGHIYQSGQTKYNPKLKGRATISVDTYKNQFSLKLSSVTAADTAVYYCARDYDILTGYSYYYYGMDVWGQGTTVTVSS VL: DIQLTQSPSTLSASVGDRVTITCRASQSISNYLNWYQQKPGKAPKLLIYAASSLHSGVPSRFSGSGSGTDFTLTISSLQPEDFASYYCQQYQSYPLTFGQGTKVEIKR | – | – | – | – | 100 nM huCB1-GFP-SMALP binding (normalized to 10D10N35Y) [5]: 3.38 fold |
| LIBC523813-1 (antibody, V domains shown, also called LIBC523813-1 + VK2 germline fix) VH: QVQLQESGPGLVKPSQTLSLTCTVSGGSIRRGGDYWSWIRQHPGKGLEWIGHVYYTGQTAYNPKFKDRATISVKTYKNQFSLKLSSVTAADTAVYYCARDYDILTGYSYYYYGMDVWGQGTTVTVSS VL: DIVMTQSPLSLPVTPGEPASISCRSSQSLLSSSGANYVDWYLQKPGQSPQLLIYLGSNRASGVPDRFSGSGSGTDFTLKISRVEAEDVGVYYCMQARGIPRTFGQGTKVEIKR | – | 6.32 | 3.38 | 5.79 | – |
| LIBC523760-1 (antibody, V domains shown) VH: QVQLQESGPGLVKPSQTLSLTCTVSGGSIRRGGDYWSWIRQHPGKGLEWIGHVYQTGSTKYNPKFKGRATISVNTYKNQFSLKLSSVTAADTAVYYCARDYDILTGYSYYYYGMDVWGQGTTVTVSS VL: DIVMTQSPLSLPVTPGEPASISCRSSQSLLTSSGANYVDWYLQKPGQSPQLLIYLGSNRASGVPDRFSGSGSGTDFTLKISRVEAEDVGVYYCRQAVGTPRTFGQGTKVEIKR | – | 5.7 | 4.19 | 7.21 | – |
